In US20110038917A1, “THERAPEUTIC COMPOSITIONS AND METHODS FOR TREATING GRAM-NEGATIVE BACTERIAL INFECTIONS” (RQ Bioscience, Inc., priority 2007, published 2011):

Conditions: human, in vivo
Method: The patient dissolved varying amounts of grape seed powder containing 20% (w/w) of oligomeric proanthocyanidin (OPC) in 37% alcohol/water to produce solutions having OPC concentrations of 1,000 mg/ml, 2,000 mg/ml and 4,000 mg/ml. Each of the solutions were filtered the resulting filtrate then diluted 1:1 with water to produce solutions having final concentrations of 500 mg OPC/l, 1,000 mg OPC/l and 2,000 mg OPC/l. They loaded 3 ml of the 500 mg OPC/l solution into an inhaler and self-administered the solution to their lungs two to three times/day for a few days. […] They performed the same experiment with each of the higher concentration OPC solutions. […] The patient then prepared a solution of bovine apolactoferrin. The lactoferrin was manufactured by Life Extension as a solid in a capsule. The patient broke open capsules and dissolved the lactoferrin therein in 18.5% alcohol/water to final concentrations ranging from 1 g lactoferrin/l to 4.5 g lactoferrin/l. […] The patient reported a relief from all signs of their infection, including coughing, for 4 to 5 hours following administration of the lactoferrin. After that time, their condition began to return to the pre-treatment state. […] It is theorized that this may have been due to a build-up in the patient's lungs of contaminants present in the OPC/lactoferrin preparation that could not be removed by filtration prior to administration. […]

B1: lactoferrin: bovine apolactoferrin manufactured by Life Extension as a solid in a capsule, dissolved in 18.5% alcohol/water (protein, UniProt P24627 20-708, looked up)
Lactotransferrin: APRKNVRWCTISQPEWFKCRRWQWRMKKLGAPSITCVRRAFALECIRAIAEKKADAVTLDGGMVFEAGRDPYKLRPVAAEIYGTKESPQTHYYAVAVVKKGSNFQLDQLQGRKSCHTGLGRSAGWIIPMGILRPYLSWTESLEPLQGAVAKFFSASCVPCIDRQAYPNLCQLCKGEGENQCACSSREPYFGYSGAFKCLQDGAGDVAFVKETTVFENLPEKADRDQYELLCLNNSRAPVDAFKECHLAQVPSHAVVARSVDGKEDLIWKLLSKAQEKFGKNKSRSFQLFGSPPGQRDLLFKDSALGFLRIPSKVDSALYLGSRYLTTLKNLRETAEEVKARYTRVVWCAVGPEEQKKCQQWSQQSGQNVTCATASTTDDCIVLVLKGEADALNLDGGYIYTAGKCGLVPVLAENRKSSKHSSLDCVLRPTEGYLAVAVVKKANEGLTWNSLKDKKSCHTAVDRTAGWNIPMGLIVNQTGSCAFDEFFSQSCAPGADPKSRLCALCAGDDQGLDKCVPNSKEKYYGYTGAFRCLAEDVGDVAFVKNDTVWENTNGESTADWAKNLNREDFRLLCLDGTRKPVTEAQSCHLAVAPNHAVVSRSDRAAHVKQVLLHQQALFGKNGKNCPDKFCLFKSETKNLLFNDNTECLAKLGGRPTYEEYLGTEYVTAIANLKKCSTSPLLEACAFLTR
modifications: apo form
notes: bovine apolactoferrin manufactured by Life Extension as a solid in a capsule, dissolved in 18.5% alcohol/water
side effects on inhalation: no immediate deleterious side effects
